Experimental data taken from patent US20220340649A1 (SENELIX, published 2022).
Positions count from the first letter of the chain named.

How the values were obtained:
[1] = biological target: T1, human YKL-40 (chitinase-3-like protein 1) (human, UniProt P36222 22-383); test: ELISA, purified IgG on antigen
T1 construct: Antigen protein immobilized in ELISA and on the Octet AR2G sensor; also called hYKL-40; human YKL-40 antigen

mouse YKL-40 [2] = biological target: T2, mouse YKL-40 (mouse, UniProt Q61362 30-389); test: Octet BLI, antigen immobilized on AR2G sensor
T2 construct: Antigen protein immobilized in ELISA and on the Octet AR2G sensor; also called mYKL-40; mouse YKL-40 antigen
T2 sequence (Q61362 30-389): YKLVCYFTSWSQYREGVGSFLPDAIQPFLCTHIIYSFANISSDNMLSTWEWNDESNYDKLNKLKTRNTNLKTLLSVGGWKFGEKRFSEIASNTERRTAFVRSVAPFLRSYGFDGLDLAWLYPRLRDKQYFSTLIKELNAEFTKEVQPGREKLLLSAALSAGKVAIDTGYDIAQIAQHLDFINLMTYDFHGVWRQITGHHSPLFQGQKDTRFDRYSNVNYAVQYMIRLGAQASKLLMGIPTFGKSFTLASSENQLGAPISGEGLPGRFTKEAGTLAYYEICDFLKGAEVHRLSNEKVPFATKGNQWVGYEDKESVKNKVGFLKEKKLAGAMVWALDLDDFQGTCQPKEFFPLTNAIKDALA
Method: (§1) To reconfirm the EC₅₀ value measured by ELISA, the affinity for 4E3-F2 (M3) and 3A10-F1 (H1) was measured using an Octet instrument. Cross-binding was investigated for the two antibodies using hYKL-40 and mYKL-40. Each antigen protein was immobilized using the AR2G (Amine Reactive 2nd Generation) sensor, and the direct immobilization method of binding each antibody with different concentrations (0-1 μM) was employed.

[3] = biological target: T1, human YKL-40 (chitinase-3-like protein …); test: ELISA, IgG titrated on hYKL-40, A450nm normalized
[4] = biological target: T1, human YKL-40 (chitinase-3-like protein …); test: Octet BLI, antigen immobilized on AR2G sensor, antibody 0-1 µM; hYKL-40 on the sensor
Method: as §1

mouse YKL-40 [5] = biological target: T2, mouse YKL-40; test: ELISA, purified IgG on antigen
mouse YKL-40 [6] = biological target: T2, mouse YKL-40; test: Octet BLI, antigen immobilized on AR2G sensor, antibody 0-1 µM; mYKL-40 on the sensor
Method: as §1

[7] = biological target: T1, human YKL-40 (chitinase-3-like protein …); test: ELISA, Fab protein titrated on hYKL-40 antigen, A450nm normalized
mouse YKL-40 [8] = biological target: T2, mouse YKL-40; test: ELISA, Fab protein titrated on mYKL-40 antigen, A450nm normalized

T1 sequence (P36222 22-383 limits assumed): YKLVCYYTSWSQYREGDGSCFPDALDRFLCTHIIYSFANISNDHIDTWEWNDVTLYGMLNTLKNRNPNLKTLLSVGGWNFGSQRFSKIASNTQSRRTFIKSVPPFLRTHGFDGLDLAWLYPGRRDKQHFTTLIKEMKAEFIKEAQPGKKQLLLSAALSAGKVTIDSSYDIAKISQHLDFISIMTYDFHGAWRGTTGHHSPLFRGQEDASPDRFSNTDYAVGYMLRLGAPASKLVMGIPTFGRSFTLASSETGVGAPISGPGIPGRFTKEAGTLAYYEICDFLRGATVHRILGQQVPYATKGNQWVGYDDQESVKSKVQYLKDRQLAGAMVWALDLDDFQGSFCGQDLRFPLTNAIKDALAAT

B1: 3A10-F1 (H1) human IgG antibody (antibody, V domains shown)
VH: EVQLVESGGGLVQPGGSLRLSCAASGFTFSNYAMSWVRQAPGKGLEWVSGISGSGGTTYYADSVKGRFTISRDNSKNTLYLQMNSLRAEDTAVYYCAGVGTFDVWGQGTLVTVSS
VL: DIQMTQSPSSLSASVGDRVTITCRASQTISSWLNWYQQKPGKAPKLLIYAASRLQSGVPSRFSGSGSGTDFTLTISSLQPEDFATYYCQQSYSTPLTFGQGTKVEIK
notes: The phage clone was converted to human IgG and produced in Expi293 cells; also called human YKL-40 antibody 3A10-F1 (H1)
In the case of B1, the EC50 [1] is reported as 0.582 nM, the binding result (mouse YKL-40 [2]) is reported as “no binding (tested: 0-1 µM)” and the EC50 [3] is reported as 0.5 nM. For the same binder, the Kd [4] was 0.05 nM.

B2: 4E3-F2 (M3) human IgG antibody (antibody, V domains shown)
VH: QVQLVQSGAEVKKPGSSVKVSCKASGGTFSSYDIHWVRQAPGQGLEWMGIISPYLGITIYAQKFQGRVTITADESTSTAYMELSSLRSEDTAVYYCARRYFYYQSEAFDYWGQGTLVTVSS
VL: B1 VL with T28S, S31N, W32Y, R53T, T94F
notes: The phage clone was converted to human IgG and produced in Expi293 cells; also called mouse YKL-40 antibody 4E3-F2 (M3)
B2 showed an EC50 (mouse YKL-40 [5]) of 0.067 nM, a Kd [4] of 57 nM and a Kd (mouse YKL-40 [6]) of 67 nM.

B3: 4E3-F2 (M3) Fab (Fab, V domains shown)
VH: B2 VH
VL: B1 VL with T28S, S31N, W32Y, R53T, T94F
notes: Fab from the Fab-II phage library; also called Fab protein of 4E3-F2 (M3)
B3 gave an EC50 [7] of 23.6 nM and an EC50 (mouse YKL-40 [8]) of 4.3 nM.

B4: 3A10-F1 (H1) Fab (Fab, V domains shown)
VH: B1 VH
VL: B1 VL
notes: Fab from the Fab-I phage library; also called Fab protein of 3A10-F1 (H1)
B4 was tested, and the EC50 [7] was 0.74 nM.
